# Patent US20050180949A1 (NUVELO, published 2005)
# B1: full-length hC1Q/TNF7, carboxy-terminal V5His6-tagged, expressed in HEK-293 cells (ligand)
# chain: QPRGNQLKGENYSPRYICSIPGLPGPPGPPGANGSPGPHGRIGLPGRDGRDGRKGEKGEKGTAGLRGKTGPLGLAGEKGDQGETGKKGPIGPEGEKGEVGPIGPPGPKGDRGEQGDPGLPGVCRCGSIVLKSAFSVGITTSYPEERLPIIFNKVLFNEGEHYNPATGKFICAFPGIYYFSYDITLANKHLAIGLVHNGQYRIKTFDANTGNHDVASGSTVIYLQPEDEVWLEIFFTDQNGLFSDPGWADSLFSGFLLYVDTDYLDSISEDDEL
# notes: The signal peptide cleavage site is only predicted; Oligomer state as told: dimers, tetramers and higher order oligomers; also called HEK293-expressed full-length hC1Q/TNF7; human C1Q/TNF7; not shown: C-terminal V5His6 tag from the pIntron vector
# Biological target: the molecule itself
# Assay: non-reducing vs reducing SDS-PAGE of the purified protein, Western blot with HRP-conjugated anti-V5 antibody (self-association / oligomerization)
# Experimental: Purified recombinant full-length hC1Q/TNF7 protein expressed in HEK-293 cells was treated as follows: N=non-reduced only; N+H=non-reduced plus heating at 100° C. for 10 min; R=reduced only; and R+H=reduced plus heating at 100° C. for 10 min.
# Studies of C1Q and 1C1Q-related proteins, such as adiponectin (Ad), indicate that most of the proteins form trimer, hexamer and higher molecular weight species (Shapiro and Scherer, Curr. Biol. 8:335-338 (1998) herein incorporated by reference in its entirety). To determine the oligomerization status of the hC1Q/TNF7 protein, the HEK293-expressed full-length hC1Q/TNF7 was treated under various conditions: non-reduced only (N); non-reduced plus heating at 100° C. for 10 min (N+H); reduced only (R); and reduced plus heating at 100° C. for 10 min (R+H). […] After heat treatment under non-reducing conditions, hC1Q/TNF7 migrated in 3 major bands: approximately 40, approximately 80, and approximately 160 kDa (Lane 2). In contrast, when hC1Q/TNF7 was treated under reducing conditions with or without heating, it ran as a single band at approximately 40 kDa (Lanes 3 and 4). Similar results were obtained using hC1Q/TNF7-F1 protein and an N-terminal V5His-tagged version of full-length hC1Q/TNF7 (not shown).
protein,measurement,value
B1,binding result,binds
